# Assay results from PMC7043065 (Cell reports, 2020).
# B1: chemokine ligand 2 (CCL2) (natural protein)
# chain: not shown
# Molecular target: C-X-C motif chemokine 12 (CXCL12) (mouse (endogenous in BM-MSC of C57BL/6 …, UniProt P40224 22-93))
# Assay: cross-linking + co-IP
# Chain of C-X-C motif chemokine 12 (CXCL12) (mouse (P40224 22-93): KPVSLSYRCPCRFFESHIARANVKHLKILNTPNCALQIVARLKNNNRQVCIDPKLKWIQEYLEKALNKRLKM
binder,measurement,value
B1,molar interaction ratio of CXCL12/CCL2,> 1
